Publication PMC4198130, “Protein Interactions of the Vesicular Glutamate Transporter VGLUT1” (PLoS ONE, 2014)

B1: His-tagged VGLUT1 C-terminal peptide (amino acids 513-549) (domain or fragment, rat, UniProt Q62634 513-549, looked up)
chain: HDQLAGSDESEMEDEVEPPGAPPAPPPSYGATHSTVQ
notes: VGLUT1 (vesicular glutamate transporter 1), rat, amino acids 513-549 of the C-terminus (acidic cluster, first polyproline domain PP1, PEST); Cloned in the Ligand Expression Vector (Panomics/Affymetrix); also called His-PP1; His-VGLUT1 PP1; source: E. coli, purified (Ni-NTA, imidazole elution, dialysis) by the methods; soluble bacterial extract by the results and the legend
B2: VGLUT1 from rat brain extract (natural protein, rat (endogenous in rat brain), UniProt Q62634 1-560, looked up)
chain: MEFRQEEFRKLAGRALGRLHRLLEKRQEGAETLELSADGRPVTTHTRDPPVVDCTCFGLPRRYIIAIMSGLGFCISFGIRCNLGVAIVSMVNNSTTHRGGHVVVQKAQFNWDPETVGLIHGSFFWGYIVTQIPGGFICQKFAANRVFGFAIVATSTLNMLIPSAARVHYGCVIFVRILQGLVEGVTYPACHGIWSKWAPPLERSRLATTAFCGSYAGAVVAMPLAGVLVQYSGWSSVFYVYGSFGIFWYLFWLLVSYESPALHPSISEEERKYIEDAIGESAKLMNPVTKFNTPWRRFFTSMPVYAIIVANFCRSWTFYLLLISQPAYFEEVFGFEISKVGLVSALPHLVMTIIVPIGGQIADFLRSRHIMSTTNVRKLMNCGGFGMEATLLLVVGYSHSKGVAISFLVLAVGFSGFAISGFNVNHLDIAPRYASILMGISNGVGTLSGMVCPIIVGAMTKHKTREEWQYVFLIASLVHYGGVIFYGVFASGEKQPWAEPEEMSEEKCGFVGHDQLAGSDESEMEDEVEPPGAPPAPPPSYGATHSTVQPPRPPPPVRDY
notes: VGLUT1, endogenous in rat brain; source: endogenous, detergent-solubilized rat brain extract

Columns and labels:
[1] = biological target: T1, GST fusion of the SH3 domain of sorting nexin 9 (Panomics) (human, UniProt Q9Y5X1 1-62); experiment: peptide or protein array; TranSignal SH3 and WW Domain Arrays (Panomics/Affymetrix): purified GST fusions of human SH3 or WW domains immobilised on a membrane, in duplicate at 100 ng; His-PP1 in solution, detected with anti-His antibody (methods: purified His-PP1; results and legend: bacterial extract with the tagged protein); settings: both partners purified
T1 construct: sorting nexin 9, human, SH3 domain; also called SNX9; source: bought: Panomics/Affymetrix (on the TranSignal SH3 Domain Array; GST fusion for pull-down)
T1 sequence (Q9Y5X1 1-62): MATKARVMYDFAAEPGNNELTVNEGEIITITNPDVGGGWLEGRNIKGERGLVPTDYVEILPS

[2] = biological target: T2, GST fusion of the SH3 domain of Fyn (SH3 domain array) (human, UniProt P06241 82-143); experiment: as above; settings: both partners purified
T2 construct: Fyn, human, SH3 domain; source: bought: Panomics/Affymetrix TranSignal SH3 Domain Array (purified GST fusion on a membrane)
T2 sequence (P06241 82-143): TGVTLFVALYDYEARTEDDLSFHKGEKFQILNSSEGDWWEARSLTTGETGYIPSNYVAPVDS

GST-Lyn-SH3 (Panomics) [3] = biological target: T3, GST-Lyn-SH3 (Panomics) (human, UniProt P07948 63-123); experiment: as above; settings: both partners purified
T3 construct: Lyn, human, SH3 domain; also called SH3 domain of Lyn; source: bought: Panomics (purified GST-Lyn-SH3 protein; also on the TranSignal SH3 Domain Array)
T3 sequence (P07948 63-123): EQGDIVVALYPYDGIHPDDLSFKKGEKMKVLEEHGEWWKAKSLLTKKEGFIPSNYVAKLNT

[4] = biological target: T4, GST fusion of the SH3 domain of EPS8 (Panomics) (human, UniProt Q12929 531-590); experiment: as above; settings: both partners purified
T4 construct: EPS8, human, SH3 domain; source: bought: Panomics/Affymetrix (on the TranSignal SH3 Domain Array; GST fusion for pull-down)
T4 sequence (Q12929 531-590): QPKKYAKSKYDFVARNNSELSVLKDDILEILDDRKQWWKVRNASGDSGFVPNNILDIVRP

[5] = biological target: T5, GST fusion of the SH3 domain of Hck (SH3 domain array) (human, UniProt P08631 78-138); experiment: as above; settings: both partners purified
T5 construct: Hck, human, SH3 domain; source: bought: Panomics/Affymetrix TranSignal SH3 Domain Array (purified GST fusion on a membrane)
T5 sequence (P08631 78-138): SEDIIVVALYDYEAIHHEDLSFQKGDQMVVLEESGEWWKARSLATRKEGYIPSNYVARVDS

[6] = biological target: GST fusion of the SH3 domain of Src (SH3 domain array) (human, UniProt P12931 84-145); experiment: as above; settings: both partners purified
[7] = biological target: T6, GST fusion of the third SH3 domain of Nck1 (human, UniProt P16333 190-252); experiment: pull-down; GST fusions of SH3 or WW domains on glutathione sepharose beads, incubated with detergent-solubilized (2% TX-100) rat brain extract, RT 60 min; bound VGLUT1 by immunoblot, band intensity normalised to lysate; settings: one partner purified
T6 construct: Nck1, human, third SH3 domain (D3); also called Nck1 D3

[8] = biological target: T7, GST fusion of the second SH3 domain of Nck1 (human, UniProt P16333 106-165); experiment: as above; settings: one partner purified
T7 construct: Nck1, human, second SH3 domain (D2); also called Nck1 D2

[9] = biological target: T8, GST fusion of the first SH3 domain of Nck2 (human, UniProt O43639 2-61); experiment: as above; settings: one partner purified
T8 construct: Nck2, human, first SH3 domain (D1); also called Nck2 D1
T8 sequence (O43639 2-61): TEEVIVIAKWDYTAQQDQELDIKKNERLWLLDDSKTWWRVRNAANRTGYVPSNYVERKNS

GST-Lyn-SH3 (Panomics) [10] = biological target: T3, GST-Lyn-SH3 (Panomics); experiment: as above; settings: one partner purified
[11] = biological target: T9, GST fusion of the SH3 domain of human Lyn (pGEX, from Clifford Lowell) (human, UniProt P07948 63-123); experiment: as above; settings: one partner purified
T9 construct: Lyn, human, SH3 domain; That the pGEX constructs from C; also called GST-Lyn
T9 sequence (P07948 63-123): as the sequence (P07948 63-123) above

[12] = biological target: T10, GST fusion of the SH3 domain of human Fyn (pGEX, from Clifford Lowell) (human, UniProt P06241 82-143); experiment: as above; settings: one partner purified
T10 construct: Fyn, human, SH3 domain; also called GST-Fyn
T10 sequence (P06241 82-143): as the sequence (P06241 82-143) above

| Binder | binding result [1] | binding result [2] | binding result (GST-Lyn-SH3 (Panomics) [3]) | binding result [4] | binding result [5] | binding result [6] | band intensity normalised to lysate [7] | band intensity normalised to lysate [8] | band intensity normalised to lysate [9] | band intensity normalised to lysate (GST-Lyn-SH3 (Panomics) [10]) | band intensity normalised to lysate [11] | band intensity normalised to lysate [12] |
| --- | --- | --- | --- | --- | --- | --- | --- | --- | --- | --- | --- | --- |
| B1 | binds | binds | binds | binds | binds | binds |  |  |  |  |  |  |
| B2 |  |  |  |  |  |  | 0.183 a.u. | 0.763 a.u. | 0.103 a.u. | 0.718 a.u. | 0.877 a.u. | 0.362 a.u. |
